The text below walks through data of patent publication US20260265316A1, “IMMUNOTHERAPEUTIC METHODS, COMPOUNDS, AND COMPOSITIONS FOR TREATING OR PREVENTING CELIAC DISEASE” (DBV Technologies, priority 2023, published 2026).

Positions count from the first letter of the chain named.

The chains are these.
B1: QLQPFPQPELPYPQPELPYPQPELPYPQPQPGPRRKKPQPEQPEQPFPEQPQGARRKKPQQPFPQPEQPFPWQPQGPKKPSGEGSFQPSQENPQ (peptide)
chain: QLQPFPQPELPYPQPELPYPQPELPYPQPQPGPRRKKPQPEQPEQPFPEQPQGARRKKPQQPFPQPEQPFPWQPQGPKKPSGEGSFQPSQENPQ
B2: QLQPFPQPELPYPQPELPYPQPELPYPQPQPGPRRKKPQPEQPEQPFPEQPQGCRRKKPQQPFPQPEQPFPWQPQGPKKPSGEGSFQPSQENPQ (peptide)
chain: B1 chain with A54C
B3: QLQPFPQPELPYPQPELPYPQPELPYPQPQPKKKKPQPEQPEQPFPEQPQKKKKPQQPFPQPEQPFPWQPQKKKKPSGEGSFQPSQENPQ (peptide)
chain: QLQPFPQPELPYPQPELPYPQPELPYPQPQPKKKKPQPEQPEQPFPEQPQKKKKPQQPFPQPEQPFPWQPQKKKKPSGEGSFQPSQENPQ

The first assay has as its system 0482 1.2 clone (DQ8-glia-α-specific). Description: IFN-γ ELISpot T cell clone assay. It is filed as cell-based, human. Conditions: 10 μM. As to the method:
(§1) FIGS. 12A-12E are graphs depicting the evaluation of the ability of gliadin polypeptides (Cv6, Av6, and 4K) to reactivate gluten-specific T cell clones isolated from CeD patients and specific for a selection of key gliadin epitopes (i.e., DQ2.5-glia-α1a (A), DQ2.5-glia-α2 (B), DQ2.5-glia-ω1 […], DQ2.5-glia-ω2 (D), and DQ8-glia-α1 […]), by IFN-γ ELISpot assay. The three gliadin polypeptide constructs Cv6, Av6, and 4K were incubated overnight at three different molarities ([…]) with irradiated PBMCs, and five T-cell clones originally isolated from HLA-DQ2^+ or HLA-DQ8^+ CeD patients. T cells clones were specific for either DQ2.5-glia-α1a (A), DQ2.5-glia-α2 (B), DQ2.5-glia-ω1 (C), DQ2.5-glia-ω2 (D) or DQ8-glia-α1 (E) epitopes. Spots were detected with IFN-γ-biotinylated antibody and streptavidin-ALP complex and counted using an AID ELISpot reader. Data are expressed as mean Spot Forming Units (SFU) per well of 3 replicate wells+SD.
(§2) For that purpose, five individual CD4^+ T cell clones specific for a selection of key gliadin epitopes have been used. The experimental readout was the enumeration of IFN-γ producing T-cells (Th1 cells) by ELISpot, as previously described: Hardy M Y, et al., J Autoimmun 2015; 56:56-65; Anderson et al., Clinical & Experimental Immunology, 2021, Issue 3, June 2021, Pages 321-334, the entire contents of each of which are incorporated by reference herein.
(§3) For this in vitro assay, irradiated peripheral blood mononuclear cells (PBMCs) isolated from the blood of healthy donors matching for HLA-DQ2.5 or HLA-DQ8 were used as a source of APCs.
(§4) As a positive control for antigen-specific T cell stimulation, the cognate gliadin-derived immunogenic peptide known to activate each CD4^+ T cell clone was used, as described in the literature (Sollid et al., Immunogenetics, 2020 February; 72(1-2):85-88; Tye-Din et al., Sci Transl Med, 2010, Vol. 2, Issue 41, 41-51, the entire contents of each of which are incorporated by reference herein). Negative controls consisted of cells treated with a cocktail of four irrelevant peptides of the following sequence: PFPLPQP (SEQ ID NO:87), PQYQPEQ (SEQ ID NO:88), PFEPQPL (SEQ ID NO:89), and PQSYPEQ (SEQ ID NO:90).
As to B1, the “mean spot forming units (IFN-γ ELISpot)” value is on record as 201.
Take B2: the “mean spot forming units (IFN-γ ELISpot)” value worked out at 173.
Regarding B3, the “mean spot forming units (IFN-γ ELISpot)” value was found to be 175.

The subject of a further assay is 3177 2.27 (DQ2.5-glia-ω1 specific) T cell clone. Briefly: IFN-γ ELISpot T cell clone assay. It is filed as cell-based, human. Conditions: 10 μM, 3177 2.27 clone. As to the method:
as §1, §2, §3, §4
For the molecule B1, the “mean spot forming units (IFN-γ ELISpot)” value stood at 21.
Turning to B2, the “mean spot forming units (IFN-γ ELISpot)” value was determined as 15.
As for B3, the “mean spot forming units (IFN-γ ELISpot)” value turned out to be 14.
